We go through two proteins from publication PMC8010718, “Direct coupling of oligomerization and oligomerization-driven endocytosis of the dopamine transporter to its conformational mechanics and activity” (The Journal of Biological Chemistry, 2021).

The term stoichiometry N denotes a count of units in the complex or per binding partner.

Data set [1] deals with the molecule itself. The data set is described as follows: SDS-resistant oligomers on SDS-PAGE and Western blot; striatal synaptosomes of HA-DAT knock-in mice with vehicle, AIM-100 or ALs (20-40 μM, 2 h, 37 °C) in KRHG or KRHG/F12 (1:1); lysates in Laemmli buffer 30 min 42 °C; DAT antibody. For orientation: Immunoblotting shows a protein as a band on a membrane.
Data set [2] deals with the molecule itself. Nature of the data set: SDS-resistant oligomers on SDS-PAGE and Western blot; PAE cells stably expressing the tagged transporter, incubated with vehicle (DMSO), AIM-100 or ALs (20 μM, 2 h, 37 °C), with or without cocaine; lysis in TGH with 1% deoxycholate; Laemmli buffer 5 min 95 °C; 7.5% SDS-PAGE; GFP antibody.

B1: endogenous HA-DAT of HA-DAT knock-in mice (natural protein, mouse, UniProt Q61327 1-619, looked up)
chain: MSKSKCSVGPMSSVVAPAKEPNAVGPREVELILVKEQNGVQLTNSTLINPPQTPVEVQERETWSKKIDFLLSVIGFAVDLANVWRFPYLCYKNGGGAFLVPYLLFMVIAGMPLFYMELALGQFNREGAAGVWKICPVLKGVGFTVILISFYVGFFYNVIIAWALHYFFSSFTMDLPWIHCNNTWNSPNCSDAHSSNSSDGLGLNDTFGTTPAAEYFERGVLHLHQSRGIDDLGPPRWQLTACLVLVIVLLYFSLWKGVKTSGKVVWITATMPYVVLTALLLRGVTLPGAMDGIRAYLSVDFYRLCEASVWIDAATQVCFSLGVGFGVLIAFSSYNKFTNNCYRDAIITTSINSLTSFSSGFVVFSFLGYMAQKHNVPIRDVATDGPGLIFIIYPEAIATLPLSSAWAAVFFLMLLTLGIDSAMGGMESVITGLVDEFQLLHRHRELFTLGIVLATFLLSLFCVTNGGIYVFTLLDHFAAGTSILFGVLIEAIGVAWFYGVQQFSDDIKQMTGQRPNLYWRLCWKLVSPCFLLYVVVVSIVTFRPPHYGAYIFPDWANALGWIIATSSMAMVPIYATYKFCSLPGSFREKLAYAITPEKDRQLVDRGEVRQFTLRHWLLV
notes: also called endogenous mouse HA-DAT; source: endogenous, striatal synaptosomes from HA-DAT knock-in mice, in lysate
Turning to B1, in data set [1], the “stoichiometry N” value is 3.

B2: YFP- and HA-epitope tagged dopamine transporter (YFP-HA-DAT), wild type (natural protein, human, UniProt Q01959 1-620, looked up)
chain: MSKSKCSVGLMSSVVAPAKEPNAVGPKEVELILVKEQNGVQLTSSTLTNPRQSPVEAQDRETWGKKIDFLLSVIGFAVDLANVWRFPYLCYKNGGGAFLVPYLLFMVIAGMPLFYMELALGQFNREGAAGVWKICPILKGVGFTVILISLYVGFFYNVIIAWALHYLFSSFTTELPWIHCNNSWNSPNCSDAHPGDSSGDSSGLNDTFGTTPAAEYFERGVLHLHQSHGIDDLGPPRWQLTACLVLVIVLLYFSLWKGVKTSGKVVWITATMPYVVLTALLLRGVTLPGAIDGIRAYLSVDFYRLCEASVWIDAATQVCFSLGVGFGVLIAFSSYNKFTNNCYRDAIVTTSINSLTSFSSGFVVFSFLGYMAQKHSVPIGDVAKDGPGLIFIIYPEAIATLPLSSAWAVVFFIMLLTLGIDSAMGGMESVITGLIDEFQLLHRHRELFTLFIVLATFLLSLFCVTNGGIYVFTLLDHFAAGTSILFGVLIEAIGVAWFYGVGQFSDDIQQMTGQRPSLYWRLCWKLVSPCFLLFVVVVSIVTFRPPHYGAYIFPDWANALGWVIATSSMAMVPIYAAYKFCSLPGSFREKLAYAIAPEKDRELVDRGEVRQFTLRHWLKV
notes: dopamine transporter (DAT), human; also called WT YFP-HA-DAT; wtDAT; source: PAE cells, stably expressing, in intact cells and in lysate
On to B2, for which the “stoichiometry N” value in data set [2] was determined as 3.
